The values that follow come from PMC11828469 (2025).

To fix the notation:
B1: GST–Rabin8-WT [human] / 6His–Rab8a [not stated] (parent complex)
chain 1: MANDPLEGFHEVNLASPTSPDLLGVYESGTQEQTTSPSVIYRPHPSALSSVPIQANALDVSELPTQPVYSSPRRLNCAEISSISFHVTDPAPCSTSGVTAGLTKLTTRKDNYNAEREFLQGATITEACDGSDDIFGLSTDSLSRLRSPSVLEVREKGYERLKEELAKAQRELKLKDEECERLSKVRDQLGQELEELTASLFEEAHKMVREANIKQATAEKQLKEAQGKIDVLQAEVAALKTLVLSSSPTSPTQEPLPGGKTPFKKGHTRNKSTSSAMSGSHQDLSVIQPIVKDCKEADLSLYNEFRLWKDEPTMDRTCPFLDKIYQEDIFPCLTFSKSELASAVLEAVENNTLSIEPVGLQPIRFVKASAVECGGPKKCALTGQSKSCKHRIKLGDSSNYYYISPFCRYRITSVCNFFTYIRYIQQGLVKQQDVDQMFWEVMQLRKEMSLAKLGYFKEEL
chain 2: MAKTYDYLFKLLLIGDSGVGKTCVLFRFSEDAFNSTFISTIGIDFKIRTIELDGKRIKLQIWDTAGQERFRTITTAYYRGAMGIMLVYDITNEKSFDNIRNWIRNIEEHASADVEKMILGNKCDVNDKRQVSKERGEKLALDYGIKFMETSAKANINVENAFFTLARDIKAKMDKKLEGNSPQGSNQGVKITPDQQKRSSFFRCVLL
B2: GST–Rabin8-WT [human] / 6His–Rab11a [not stated] (parent complex)
chain 1: B1 chain 1
chain 2: MGTRDDEYDYLFKVVLIGDSGVGKSNLLSRFTRNEFNLESKSTIGVEFATRSIQVDGKTIKAQIWDTAGQERYRAITSAYYRGAVGALLVYDIAKHLTYENVERWLKELRDHADSNIVIMLVGNKSDLRHLRAVPTDEARAFAEKNGLSFIETSALDSTNVEAAFQTILTEIYRIVSQKQMSDRRENDMSPSNNVVPIHVPPTTENKPKVQCCQNI

Variants of B1 are the subject of the first test. The test can be described thus: GST pull-down, immunoblot quantified with Image Lab 6.1; purified Rab8 in the presence of GDPβS; n=3; parent: 4.5; read off a plot.
Take chain 1 F201A: the response is approximately 4.5. For the variant chain 1 E192A, the response is approximately 4.5.

Consider chain 1 T419A, chain 1 Y423A, chain 1 L428A, for which the response is approximately 4.5.

The next test covers variants of B2. The test can be described thus: GST pull-down, immunoblot quantified with Image Lab 6.1; purified Rab11 in the presence of GTPγS; n=3; parent: 8.5; read off a plot.
As to chain 1 E192A, the response was approximately 9.5. With chain 1 F201A, the response was approximately 9.

Variants of B2 are the subject of another test. The test can be described thus: GST pull-down, immunoblot quantified with Image Lab 6.1; purified Rab11 in the presence of GTPγS; n=3; P=0.0012 vs WT; parent: 8.5; read off a plot.
Take chain 1 T419A, chain 1 Y423A, chain 1 L428A: the response was approximately 2.5.
